Laboratory results from patent US6660836.

Legend:
[1] = target: Gαq-glutathione S-transferase fusion protein; assay: hydroxyl radical alkyl 1H/2H exchange footprinting, LC-MS of DNS-amino acids; 50 µM GST-Gaq/100 µM CTP, 400 µM OH radical
[2] = target: Gαq-glutathione S-transferase fusion protein; assay: hydroxyl radical alkyl 1H/2H exchange footprinting normalised to internal reference 2,4-DNP-Leu; 30 µM GST-Gaq/15.6 µM CTP, 400 µM OH radical
[3] = target: Gαq-glutathione S-transferase fusion protein; assay: hydroxyl radical alkyl 1H/2H exchange footprinting normalised to internal reference 2,4-DNP-Leu; 50 µM GST-Gaq/100 µM CTP, 400 µM OH radical
[4] = target: Gαq-glutathione S-transferase fusion protein; assay: hydroxyl radical alkyl 1H/2H exchange footprinting, LC-MS of DNS-amino acids; 50 µM GST-Gaq/100 µM CTP, 200 µM OH radical
[5] = target: Gαq-glutathione S-transferase fusion protein; assay: hydroxyl radical alkyl 1H/2H exchange footprinting normalised to internal reference 2,4-DNP-Leu; 50 µM GST-Gaq/100 µM CTP, 200 µM OH radical
[6] = target: Gαq-glutathione S-transferase fusion protein; assay: hydroxyl radical alkyl 1H/2H exchange footprinting, LC-MS of DNS-amino acids; 30 µM GST-Gaq/15.6 µM CTP, 400 µM OH radical

B1: C-terminal peptide (…) of the third intracellular loop of the 5-hydroxytryptamine2A receptor (peptide)
peptide: SNEQKACKVLGI
[1]
  Δ Isotope Ratio free/Δ Isotope Ratio bound (residue Ala): 6.3
  Δ Isotope Ratio free/Δ Isotope Ratio bound (residue Asp): -2.5
  Δ Isotope Ratio free/Δ Isotope Ratio bound (residue Glu): 6.5
  Δ Isotope Ratio free/Δ Isotope Ratio bound (residue Gly): 0.5
  Δ Isotope Ratio free/Δ Isotope Ratio bound (residue Ile): 2.9
  Δ Isotope Ratio free/Δ Isotope Ratio bound (residue Leu): 3.1
  Δ Isotope Ratio free/Δ Isotope Ratio bound (residue Lys, diDNS-Lys derivative): 3.1
  Δ Isotope Ratio free/Δ Isotope Ratio bound (residue Ser): 0
  Δ Isotope Ratio free/Δ Isotope Ratio bound (residue Val): 2.7
[2]
  Protection Factor (residue Ala): 0.24
  Protection Factor (residue Asp): 0.16
  Protection Factor (residue Glu): 0.37
  Protection Factor (residue Gly): 0.3
  Protection Factor (residue Ile): 0.41
  Protection Factor (residue Leu): 0.39
  Protection Factor (residue Lys): 0.39
  Protection Factor (residue Ser): -0.35
  Protection Factor (residue Val): 0.38
[3]
  Protection Factor (residue Ala): 7.2
  Protection Factor (residue Asp): -1.5
  Protection Factor (residue Glu): 6.3
  Protection Factor (residue Gly): 0
  Protection Factor (residue Ile): 2.2
  Protection Factor (residue Leu): 2.4
  Protection Factor (residue Lys): 2.3
  Protection Factor (residue Ser): 0
  Protection Factor (residue Val): 2
[4]
  Δ Isotope Ratio free/Δ Isotope Ratio bound (residue Ala): 4.5
  Δ Isotope Ratio free/Δ Isotope Ratio bound (residue Asp): -2
  Δ Isotope Ratio free/Δ Isotope Ratio bound (residue Glu): 1.8
  Δ Isotope Ratio free/Δ Isotope Ratio bound (residue Gly): 1.2
  Δ Isotope Ratio free/Δ Isotope Ratio bound (residue Ile): 2.5
  Δ Isotope Ratio free/Δ Isotope Ratio bound (residue Leu): 2.3
  Δ Isotope Ratio free/Δ Isotope Ratio bound (residue Lys, diDNS-Lys derivative): 2.4
  Δ Isotope Ratio free/Δ Isotope Ratio bound (residue Ser): 0
  Δ Isotope Ratio free/Δ Isotope Ratio bound (residue Val): 2.4
[5]
  Protection Factor (residue Ala): 2
  Protection Factor (residue Asp): -0.77
  Protection Factor (residue Glu): 0.51
  Protection Factor (residue Gly): 0.32
  Protection Factor (residue Ile): 0.62
  Protection Factor (residue Leu): 0.59
  Protection Factor (residue Lys): 0.58
  Protection Factor (residue Ser): 0
  Protection Factor (residue Val): 0.61
[6]
  Δ Isotope Ratio free/Δ Isotope Ratio bound (residue Ala): 0.8
  Δ Isotope Ratio free/Δ Isotope Ratio bound (residue Asp): 0.53
  Δ Isotope Ratio free/Δ Isotope Ratio bound (residue Glu): 1.2
  Δ Isotope Ratio free/Δ Isotope Ratio bound (residue Gly): 0.99
  Δ Isotope Ratio free/Δ Isotope Ratio bound (residue Ile): 1.4
  Δ Isotope Ratio free/Δ Isotope Ratio bound (residue Leu): 1.3
  Δ Isotope Ratio free/Δ Isotope Ratio bound (residue Lys, diDNS-Lys derivative): 1.3
  Δ Isotope Ratio free/Δ Isotope Ratio bound (residue Ser): -1.2
  Δ Isotope Ratio free/Δ Isotope Ratio bound (residue Val): 1.3
